Test results taken from patent US20080193431.

Target: T1, Ac-DEVD-CHO
T1 chain: DEVD

B1: caspase-3 (protein)
chain: SGISLDNSYKMDYPEMGLCIIINNKNFHKSTGMTSRSGTDVDAANLRETFRNLKYEVRNKNDLTREEIVELMRDVSKEDHSKRSSFVCVLLSHGEEGIIFGTNGPVDLKKITNFFRGDRCRSLTGKPKLFIIQACRGTELDCGIETDSGVDDDMACHKIPVEADFLYAYSTAPGYYSWRNSKDGSWFIQSLCAMLKQYADKLEFMHILTRVNRKVATEFESFSFDATFHAKKQIPCIVSMLTKELYFYH
enzyme activity (caspase-3 cleavage of PPC, HPLC): completely blocked the enzyme activity
